First the molecules themselves.
B1: Poly(rC)-binding protein 1, residues 278 to 350; numbered along this chain, Q15365 (parent)
chain: TQTTHELTIPNNLIGCIIGRQGANINEIRQMSGAQIKIANPVEGSSGRQVTITGSAASISLAQYLINARLSSE

± gives the uncertainty stated by the source.

In this data set the parent is B1. The experiment in a line: abundance fitness (aPCA) (normalised: wild type 0, dead -1); higher = more abundant; growth selection in yeast, the domain comes from the species named. The following applies: Homo sapiens.
I28V: the abundance fitness is -0.257 ± 0.038.
Consider I28G, for which the abundance fitness was -0.78 ± 0.083.
To I28W belongs -0.408 ± 0.11; to I28A, -0.735 ± 0.087; to I28Q, -0.683 ± 0.2.
As for I28S, the abundance fitness is -1.04 ± 0.18.
Take I28L: the abundance fitness is -0.143 ± 0.035.
In the case of I28H, the abundance fitness was -0.956 ± 0.28.
Regarding I28P, the abundance fitness was -0.939 ± 0.13.
As to I28Y, the abundance fitness is -0.731 ± 0.29.
The figure for I18N is -0.156 ± 0.13; for I18P it is -0.808 ± 0.1.
To I18E belongs -0.118 ± 0.068.
On to I18W, for which the abundance fitness is -0.232 ± 0.047.
I18C: the abundance fitness is -0.616 ± 0.097.
Turning to I18D, the abundance fitness was -0.39 ± 0.091.
As to I18V, the abundance fitness was -0.367 ± 0.046.
Regarding I18S, the abundance fitness is -0.433 ± 0.059.
With I18F, the abundance fitness is -0.321 ± 0.13.
As for I18R, the abundance fitness was -0.636 ± 0.049.
The figure for I18H is -0.767 ± 0.15; for I18G it is -0.565 ± 0.077.
Turning to I18A, the abundance fitness was -0.316 ± 0.048.
To I18T belongs -0.218 ± 0.054; to I18K, -0.435 ± 0.07.
To I18Q belongs -0.756 ± 0.087; to I18L, -0.355 ± 0.041.
In the case of Q30F, the abundance fitness is -0.094 ± 0.16.
The figure for Q30P is -0.809 ± 0.16.
The figure for Q30A is 0.001 ± 0.047; for Q30L it is -0.163 ± 0.035; for Q30S it is 0.023 ± 0.064.
Regarding Q30C, the abundance fitness is -0.341 ± 0.13.
For Q30R, the abundance fitness is 0.099 ± 0.038.
Take Q30D: the abundance fitness was -0.502 ± 0.41.
Take Q30M: the abundance fitness was -0.137 ± 0.048.
In the case of Q30N, the abundance fitness is 0.147 ± 0.42.
As to Q30E, the abundance fitness was determined as 0.013 ± 0.079.
Consider Q30G, for which the abundance fitness was -0.168 ± 0.047.
For Q30K, the abundance fitness worked out at 0.172 ± 0.092.
With Q30W, the abundance fitness is -0.334 ± 0.056.
On to Q30T, for which the abundance fitness was 0.064 ± 0.074.
With Q21P, the abundance fitness is -0.568 ± 0.066.
As for Q21M, the abundance fitness was -0.322 ± 0.054.
To Q21I belongs -0.844 ± 0.22.
In the case of Q21D, the abundance fitness is -0.134 ± 0.076.
On to Q21N, for which the abundance fitness stood at 0.052 ± 0.078.
In the case of Q21Y, the abundance fitness was -0.217 ± 0.13.
As to Q21S, the abundance fitness was -0.09 ± 0.038.
Regarding Q21R, the abundance fitness is -0.012 ± 0.033.
The figure for Q21K is 0.081 ± 0.047.
Consider Q21E, for which the abundance fitness is -0.09 ± 0.041.
Turning to Q21F, the abundance fitness is -0.236 ± 0.068.
Regarding Q21T, the abundance fitness is -0.207 ± 0.046.
The figure for Q21H is -0.032 ± 0.083.
Turning to Q21C, the abundance fitness is -0.281 ± 0.061.
The figure for Q21W is -0.339 ± 0.054.
For Q21L, the abundance fitness is -0.437 ± 0.04.
Take Q21G: the abundance fitness was -0.106 ± 0.041.
As for E27H, the abundance fitness is -0.09 ± 0.086.
On to E27Y, for which the abundance fitness is -0.157 ± 0.12.
In the case of E27W, the abundance fitness is -0.136 ± 0.04.
Consider E27L, for which the abundance fitness was -0.225 ± 0.045.
On to E27V, for which the abundance fitness is -0.26 ± 0.035.
With E27F, the abundance fitness is -0.564 ± 0.17.
For the variant E27A, the abundance fitness was -0.18 ± 0.04.
Turning to E27K, the abundance fitness came to 0.021 ± 0.065.
To E27N belongs 0.08 ± 0.11.
For E27S, the abundance fitness was -0.035 ± 0.047.
To E27P belongs -0.704 ± 0.13; to E27I, -0.164 ± 0.19.
For E27T, the abundance fitness is -0.102 ± 0.078.
On to E27C, for which the abundance fitness is -0.169 ± 0.065.
To E27D belongs -0.099 ± 0.076.
On to E27R, for which the abundance fitness came out at 0.005 ± 0.031.
Consider E27M, for which the abundance fitness is 0.014 ± 0.047.
For the variant E27Q, the abundance fitness came to 0.028 ± 0.053.
As to E27G, the abundance fitness was -0.244 ± 0.034.
For L13Y, the abundance fitness was -0.07 ± 0.14.
To L13M belongs 0.05 ± 0.06; to L13S, -0.041 ± 0.054.
Regarding L13D, the abundance fitness is -0.012 ± 0.089.
Take L13W: the abundance fitness was -0.265 ± 0.04.
Regarding L13K, the abundance fitness amounted to 0.062 ± 0.054.
As to L13P, the abundance fitness is -0.959 ± 0.2.
Turning to L13F, the abundance fitness was -0.107 ± 0.19.
As to L13G, the abundance fitness is -0.477 ± 0.038.
The figure for L13R is -0.082 ± 0.032; for L13E it is -0.06 ± 0.05; for L13T it is -0.181 ± 0.068.
Turning to L13V, the abundance fitness is -0.404 ± 0.051.
For the variant L13I, the abundance fitness is -0.076 ± 0.12.
Consider L13N, for which the abundance fitness is -0.228 ± 0.12.
In the case of L13H, the abundance fitness was -0.051 ± 0.082.
Regarding L13Q, the abundance fitness stood at 0.14 ± 0.063.
To G22Y belongs -0.383 ± 0.18; to G22M, -0.205 ± 0.06; to G22S, 0.01 ± 0.038.
For the variant G22P, the abundance fitness is -0.583 ± 0.074.
Turning to G22V, the abundance fitness is -0.703 ± 0.072.
For G22K, the abundance fitness is -0.329 ± 0.13.
Regarding G22C, the abundance fitness was -0.113 ± 0.05.
As for G22I, the abundance fitness is -1.04 ± 0.27.
The figure for G22T is -0.373 ± 0.073; for G22N it is 0.089 ± 0.12; for G22L it is -0.408 ± 0.048.
As to G22E, the abundance fitness amounted to 0.137 ± 0.067.
To G22D belongs -0.249 ± 0.095; to G22Q, -0.228 ± 0.057.
The figure for G22H is -0.122 ± 0.16.
Regarding G22R, the abundance fitness is -0.271 ± 0.048.
To C16F belongs -0.031 ± 0.15.
On to C16V, for which the abundance fitness was -0.083 ± 0.049.
To C16P belongs -0.045 ± 0.065; to C16T, 0.131 ± 0.063; to C16E, -0.038 ± 0.059.
Take C16S: the abundance fitness was -0.042 ± 0.051.
With C16H, the abundance fitness is -0.141 ± 0.094.
The figure for C16L is -0.107 ± 0.048.
The figure for C16Q is 0.01 ± 0.055.
In the case of C16A, the abundance fitness was 0.059 ± 0.049.
For the variant C16M, the abundance fitness came out at 0.092 ± 0.076.
Regarding C16D, the abundance fitness was -0.063 ± 0.12.
The figure for C16K is 0.093 ± 0.079; for C16R it is 0.138 ± 0.033.
As for C16Y, the abundance fitness was -0.209 ± 0.21.
The figure for C16I is 0.266 ± 0.1; for C16G it is -0.116 ± 0.042.
For the variant C16W, the abundance fitness is -0.092 ± 0.05.
S32A: the abundance fitness is -0.498 ± 0.074.
To S32D belongs -0.965 ± 0.19.
As to S32C, the abundance fitness is -0.201 ± 0.13.
Consider A23L, for which the abundance fitness is -0.22 ± 0.051.
As for A23W, the abundance fitness was -0.419 ± 0.089.
Consider A23V, for which the abundance fitness was -0.09 ± 0.064.
Take A23P: the abundance fitness is -0.401 ± 0.1.
Turning to A23R, the abundance fitness came out at 0.102 ± 0.043.
With A23N, the abundance fitness is -0.167 ± 0.14.
Turning to A23Q, the abundance fitness amounted to 0.05 ± 0.061.
For the variant A23K, the abundance fitness came to 0.067 ± 0.072.
The figure for A23C is 0.018 ± 0.067; for A23Y it is -0.296 ± 0.13.
A23M: the abundance fitness is -0.128 ± 0.076.
The figure for A23F is 0.044 ± 0.15; for A23E it is 0.056 ± 0.069; for A23G it is -0.069 ± 0.053.
Regarding A23D, the abundance fitness was -0.079 ± 0.12.
As for A23H, the abundance fitness came out at 0.102 ± 0.093.
In the case of A23I, the abundance fitness was -0.115 ± 0.13.
In the case of M31Y, the abundance fitness was -0.056 ± 0.16.
Consider M31S, for which the abundance fitness is -0.171 ± 0.053.
For the variant M31R, the abundance fitness was found to be 0.088 ± 0.032.
Turning to M31F, the abundance fitness was -0.109 ± 0.24.
The figure for M31C is 0.029 ± 0.088.
For M31V, the abundance fitness was -0.126 ± 0.047.
Regarding M31P, the abundance fitness is -0.894 ± 0.17.
Regarding M31Q, the abundance fitness turned out to be 0.095 ± 0.047.
With M31A, the abundance fitness is 0.038 ± 0.046.
To M31G belongs -0.347 ± 0.043.
As to M31T, the abundance fitness was -0.051 ± 0.073.
In the case of M31E, the abundance fitness was found to be 0.019 ± 0.049.
To M31W belongs -0.325 ± 0.056; to M31L, -0.009 ± 0.042; to M31K, 0.162 ± 0.061.
Take M31D: the abundance fitness is -0.337 ± 0.18.
As for M31N, the abundance fitness was determined as 0.203 ± 0.13.
Regarding M31I, the abundance fitness was -0.196 ± 0.14.
